For the data set, the target named is T1, MBP-GLD-1(135-336) WT (C. elegans, UniProt Q17339 135-336).
T1 sequence: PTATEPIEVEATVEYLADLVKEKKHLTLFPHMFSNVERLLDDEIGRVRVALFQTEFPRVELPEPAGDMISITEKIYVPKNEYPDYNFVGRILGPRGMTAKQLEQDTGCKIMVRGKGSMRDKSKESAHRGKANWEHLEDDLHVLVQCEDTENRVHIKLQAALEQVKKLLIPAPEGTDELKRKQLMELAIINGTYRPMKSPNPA
The data set can be described thus: EMSA.

In the case of UUUUUCUUAUUCUAGACUAAUAUUGUAAGCU (ssRNA) [glp-1 3'UTR fragment], the binding result is “binds”.

Values taken from article PMC9200065.
